# B1: WW domain-containing oxidoreductase (Homo sapiens), Q9NZC7 (parent)
# chain: MAALRYAGLDDTDSEDELPPGWEERTTKDGWVYYANHTEEKTQWEHPKTGKRKRVAGDLPYGWEQETDENGQVFFVDHINKRTTYLDPRLAFTVDDNPTKPTTRQRYDGSTTAMEILQGRDFTGKVVVVTGANSGIGFETAKSFALHGAHVILACRNMARASEAVSRILEEWHKAKVEAMTLDLALLRSVQHFAEAFKAKNVPLHVLVCNAATFALPWSLTKDGLETTFQVNHLGHFYLVQLLQDVLCRSAPARVIVVSSESHRFTDINDSLGKLDFSRLSPTKNDYWAMLAYNRSKLCNILFSNELHRRLSPRGVTSNAVHPGNMMYSNIHRSWWVYTLLFTLARPFTKSMQQGAATTVYCAAVPELEGLGGMYFNNCCRCMPSPEAQSEETARTLWALSERLIQERLGSQSG
# B2: Receptor tyrosine-protein kinase erbB-4 (Mus musculus), Q61527 (parent)
# chain: MKLATGLWVWGSLLMAAGTVQPSASQSVCAGTENKLSSLSDLEQQYRALRKYYENCEVVMGNLEITSIEHNRDLSFLRSIREVTGYVLVALNQFRYLPLENLRIIRGTKLYEDRYALAIFLNYRKDGNFGLQELGLKNLTEILNGGVYVDQNKFLCYADTIHWQDIVRNPWPSNMTLVSTNGSSGCGRCHKSCTGRCWGPTENHCQTLTRTVCAEQCDGRCYGPYVSDCCHRECAGGCSGPKDTDCFACMNFNDSGACVTQCPQTFVYNPTTFQLEHNFNAKYTYGAFCVKKCPHNFVVDSSSCVRACPSSKMEVEENGIKMCKPCTDICPKACDGIGTGSLMSAQTVDSSNIDKFINCTKINGNLIFLVTGIHGDPYNAIDAIDPEKLNVFRTVREITGFLNIQSWPPNMTDFSVFSNLVTIGGRVLYSGLSLLILKQQGITSLQFQSLKEISAGNIYITDNSNLCYYHTINWTTLFSTINQRIVIRDNRRAENCTAEGMVCNHLCSNDGCWGPGPDQCLSCRRFSRGKICIESCNLYDGEFREFENGSICVECDSQCEKMEDGLLTCHGPGPDNCTKCSHFKDGPNCVEKCPDGLQGANSFIFKYADQDRECHPCHPNCTQGCNGPTSHDCIYYPWTGHSTLPQHARTPLIAAGVIGGLFILVIMALTFAVYVRRKSIKKKRALRRFLETELVEPLTPSGTAPNQAQLRILKETELKRVKVLGSGAFGTVYKGIWVPEGETVKIPVAIKILNETTGPKANVEFMDEALIMASMDHPHLVRLLGVCLSPTIQLVTQLMPHGCLLDYVHEHKDNIGSQLLLNWCVQIAKGMMYLEERRLVHRDLAARNVLVKSPNHVKITDFGLARLLEGDEKEYNADGGKMPIKWMALECIHYRKFTHQSDVWSYGVTIWELMTFGGKPYDGIPTREIPDLLEKGERLPQPPICTIDVYMVMVKCWMIDADSRPKFKELAAEFSRMARDPQRYLVIQGDDRMKLPSPNDSKFFQNLLDEEDLEDMMDAEEYLVPQAFNIPPPIYTSRTRIDSNRSEIGHSPPPAYTPMSGNQFVYQDGGFATQQGMPMPYRATTSTIPEAPVAQGATAEMFDDSCCNGTLRKPVAPHVQEDSSTQRYSADPTVFAPERNPRGELDEEGYMTPMHDKPKQEYLNPVEENPFVSRRKNGDLQALDNPEYHSASSGPPKAEDEYVNEPLYLNTFANALGSAEYMKNSVLSVPEKAKKAFDNPDYWNHSLPPRSTLQHPDYLQEYSTKYFYKQNGRIRPIVAENPEYLSEFSLKPGTMLPPPPYRHRNTVV
# partner: B1 chain
# Variants of: B1
# Conditions: with erbb4_mouse Erbb4, Q61527
row,Variant,effect of a mutation on the interaction
1,Y33R,disrupting interaction

# Variants of: B2
# Conditions: with wwox_human WWOX, Q9NZC7
row,Variant,effect of a mutation on the interaction
1,Y1035A;Y1301A,disrupting interaction
